Where no end group is shown, it is not given here. [ ]: non-standard residue; d: D form. pT = C[C@@H](OP(=O)(O)O)[C@H](N)C(=O)O; pS = N[C@@H](COP(=O)(O)O)C(=O)O

We go through four molecules from PMC7969019 (Nucleic Acids Research, 2020).

In this test the target is T1, human TFIIH p62 residues 1-158 (tandem PH and BSD1 domains) (human, UniProt P32780 1-158).
T1 sequence (looked up): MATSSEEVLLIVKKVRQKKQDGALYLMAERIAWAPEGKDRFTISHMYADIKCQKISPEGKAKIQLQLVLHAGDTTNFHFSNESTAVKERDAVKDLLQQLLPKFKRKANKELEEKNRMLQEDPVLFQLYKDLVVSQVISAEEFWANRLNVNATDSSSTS
The test can be described thus: NMR titration.

Consider DDLML[pS]PDDIEQWF[pT]EDPGPDE (peptide, UniProt P04637 41-62, looked up) [Ser46- and Thr55-phosphorylated p53 (residues 41-62)], for which the binding result is “binds”.
Consider AEEDEDDEDFVEVPEKEGYEP (peptide, UniProt Q2YD98 399-419, looked up) [UVSSA (residues 399-419)], for which the binding result is “binds”.
For the molecule EEEEESENDWEEVEELSEP (peptide, UniProt Q01831 124-142, looked up) [XPC (residues 124-142)], the binding result was “binds”.

B1: TFIIEα (residues 378-439), acidic domain (domain or fragment, UniProt P29083 378-439, looked up)
chain: EEDEEEDDEFEEVADDPIVMVAGRPFSYSEVSQRPELVAQMTPEEKEAYIAMGQRMFEDLFE
B1: the binding result is recorded as “binds”.
